From patent publication US20240342284A1 (ARSENAL BIOSCIENCES, published 2024) come the findings set out here.

For orientation: Kd means the equilibrium constant for the complex coming apart. One may read the koff as the rate constant with which the complex falls apart. A word on the kon: it is the second-order rate constant of association. Usually EC50 stands for the concentration at which the effect is half-maximal. The low end stands for higher potency in that assay, the high end for lower potency in that assay.

The target of assay [1] is T1, human CA9 isoform with Q326R SNP, expressed on HEK293T cells (human, UniProt Q16790 38-459).
T1 construct: also called CA9-Q326R; Q326R CA9
Briefly: flow cytometry histograms on the snpQ326R CA9 HEK293T line, secondary mouse anti human IgG2 stain. On the technique in general: In flow cytometry, cells or beads pass a laser one at a time.

Assay [2] concerns the target T2, human Carbonic Anhydrase IX (CA9) expressed on cells (human, UniProt Q16790 38-459). Briefly: flow cytometry histograms on the wt line 293T-LP81-CA9(CL572), secondary mouse anti human IgG2 stain.
Assay [3] deals with T3, human CA9 isoform with 91-96 deletion, expressed on HEK293T cells (human, UniProt Q16790 38-459).
T3 construct: also called CA9-91-96del; 91-96del CA9
Briefly: flow cytometry histograms on the 91-96del CA9 HEK293T line, secondary mouse anti human IgG2 stain.

Assay [4] has as its target T2, human Carbonic Anhydrase IX (CA9) …. As to the kind of experiment: flow cytometry on HEK293T-CA9 against parental cells (data not shown). How it is done:
(§1) Binding of recombinant CA9 1-mIgG2a and CA9 2-mIgG2a to CA9 was assessed by cell binding dose curves on parental HEK293T cells and HEK293T-CA9 expressing cell lines. Briefly, HEK293T parental and HEK293T-CA9 engineered cells were first blocked with human Fc blocker for 10 min at room temperature, stained for 30 min on ice with recombinant antibodies in an 8-point serial dilution, and washed 3 times with BD Stain Buffer. Subsequently, cells were stained for 30 min on ice with anti-mouse IgG2a-PE secondary antibody. Cell surface binding was measured on an Attune flow cytometer, with geometric mean fluorescence intensity (gMFI) data analyzed in FlowJo and plotted using GraphPad Prism. The dose-response curves and EC50 value were analyzed and obtained using the nonlinear fit model of (agonist) versus response (three parameters).

Assay [5] has as its target T4, recombinant human PSMA (human, UniProt Q04609 44-750).
T4 construct: Soluble recombinant antigen used as analyte on the Octet
Briefly: BLI (Octet R8), antibody on anti-mouse capture biosensors, recombinant human PSMA as analyte. How it is done:
The binding affinity of recombinant antibodies to human PSMA target antigen and cross-reactivity to mouse homologs was measured on the Octet R8 instrument. Briefly, recombinant antibody was loaded onto anti-mouse capture (AMC) Octet biosensors. Biosensors were then dipped into different concentrations of recombinant target antigen (analyte) solution, and the rate of protein-protein complex formation (association) measured. Protein-protein dissociation rates were measured when the biosensors were dipped into kinetic buffer alone. The Octet Analysis Studio 13.0 software calculated the response in equilibrium (Req) using the association and dissociation signal. The KD value and other kinetics parameters were determined by the values of Req for each analyte concentration (Table 2).

For assay [6], the target named is T5, mouse PSMA expressed on HEK293T cells (mouse, UniProt O35409 1-752).
T5 construct: whole, on cells; also called HEK293T-mPSMA; mPSMA
T5 sequence (O35409 whole entry): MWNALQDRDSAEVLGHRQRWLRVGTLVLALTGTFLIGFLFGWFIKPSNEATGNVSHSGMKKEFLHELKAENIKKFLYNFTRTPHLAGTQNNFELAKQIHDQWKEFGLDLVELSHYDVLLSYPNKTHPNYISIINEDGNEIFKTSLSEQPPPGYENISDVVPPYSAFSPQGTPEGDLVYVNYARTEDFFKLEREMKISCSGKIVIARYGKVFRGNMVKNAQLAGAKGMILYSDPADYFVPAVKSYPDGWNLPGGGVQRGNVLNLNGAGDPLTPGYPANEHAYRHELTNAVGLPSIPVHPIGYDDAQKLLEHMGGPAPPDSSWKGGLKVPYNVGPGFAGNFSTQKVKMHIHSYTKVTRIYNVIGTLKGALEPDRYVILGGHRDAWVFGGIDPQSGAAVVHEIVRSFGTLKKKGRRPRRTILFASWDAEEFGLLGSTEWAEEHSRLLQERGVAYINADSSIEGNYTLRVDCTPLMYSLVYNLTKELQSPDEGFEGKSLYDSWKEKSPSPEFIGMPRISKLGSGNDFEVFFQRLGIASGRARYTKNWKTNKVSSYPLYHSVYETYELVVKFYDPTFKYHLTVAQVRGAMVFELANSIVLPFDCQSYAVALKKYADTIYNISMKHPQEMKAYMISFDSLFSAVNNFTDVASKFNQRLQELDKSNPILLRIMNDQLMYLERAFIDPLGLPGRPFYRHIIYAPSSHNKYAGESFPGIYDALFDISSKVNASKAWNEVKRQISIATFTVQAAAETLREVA
Briefly: flow cytometry histograms on HEK293T-mPSMA cells (panel B, left), axis PSMA 1 ab MFI. Here is the method:
Cross-reactivity of PSMA 1 to mouse PSMA was evaluated using flow cytometry. In brief, HEK293T cells expressing mouse PSMA (HEK293T-mPSMA) were stained for 30 min on ice with increasing concentrations of PSMA 1-mIgG2a. Target cells were also stained with positive control antibodies to confirm expression of mouse PSMA on the engineered HEK293T cells. Following primary staining, the cells were washed, stained with secondary antibody, and subsequently analyzed by flow cytometry. Data were analyzed using FlowJo.

Assay [7] deals with T6, recombinant mouse PSMA (mouse, UniProt O35409 45-752, limits assumed).
T6 construct: also called mouse homolog of PSMA
T6 sequence (O35409 45-752 limits assumed): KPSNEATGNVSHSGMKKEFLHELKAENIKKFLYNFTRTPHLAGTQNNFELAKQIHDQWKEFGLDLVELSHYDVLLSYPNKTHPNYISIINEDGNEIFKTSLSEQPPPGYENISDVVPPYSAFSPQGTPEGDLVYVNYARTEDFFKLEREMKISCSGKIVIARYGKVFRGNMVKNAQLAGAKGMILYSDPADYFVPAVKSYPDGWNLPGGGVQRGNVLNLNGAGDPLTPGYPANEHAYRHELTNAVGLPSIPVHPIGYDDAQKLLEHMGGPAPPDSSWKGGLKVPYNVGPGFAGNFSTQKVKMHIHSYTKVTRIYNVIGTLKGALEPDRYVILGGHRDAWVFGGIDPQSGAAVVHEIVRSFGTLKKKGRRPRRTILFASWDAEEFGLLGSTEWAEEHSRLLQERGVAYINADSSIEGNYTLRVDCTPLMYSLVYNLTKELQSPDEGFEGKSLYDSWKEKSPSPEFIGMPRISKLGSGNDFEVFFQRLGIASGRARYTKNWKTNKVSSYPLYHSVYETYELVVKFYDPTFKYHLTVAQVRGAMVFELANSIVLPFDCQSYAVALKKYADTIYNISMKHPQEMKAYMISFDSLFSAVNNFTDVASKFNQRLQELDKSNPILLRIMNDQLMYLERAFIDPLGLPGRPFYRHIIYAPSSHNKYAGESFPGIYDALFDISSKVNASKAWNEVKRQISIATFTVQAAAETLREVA
Briefly: BLI (Octet R8), antibody on anti-mouse capture biosensors, recombinant antigen as analyte. How it is done:
(§2) The binding affinity of recombinant CA9 antibodies to human CA9 target antigen and cross-reactivity to mouse homologs was measured on the Octet R8. Briefly, recombinant antibody was loaded onto anti-mouse capture (AMC) Octet biosensors. Biosensors were then dipped into different concentrations of recombinant target antigen (analyte) solution, and the rate of protein-protein complex formation (association) measured. Protein-protein dissociation rates were measured when the biosensors were dipped into kinetic buffer alone. The Octet Analysis Studio 13.0 software calculated the response in equilibrium (Req) using the association and dissociation signal. The KD value and other kinetics parameters were determined by the values of Req for each analyte concentration (Table 1).
(§3) The binding affinity of recombinant antibodies to human PSMA target antigen and cross-reactivity to mouse homologs was measured on the Octet R8 instrument. […] Biosensors were then dipped into different concentrations of recombinant target antigen (analyte) solution, and the rate of protein-protein complex formation (association) measured. Protein-protein dissociation rates were measured when the biosensors were dipped into kinetic buffer alone. The Octet Analysis Studio 13.0 software calculated the response in equilibrium (Req) using the association and dissociation signal. […]
On the technique in general: Biolayer interferometry detects binding as a change in optical thickness at a sensor tip.

In assay [8] the target is T7, human Prostate-Specific Membrane Antigen (PSMA) expressed on cells (human, UniProt Q04609 1-750).
T7 construct: also called FOLH1; HEK293T-PSMA
T7 sequence (Q04609 whole entry): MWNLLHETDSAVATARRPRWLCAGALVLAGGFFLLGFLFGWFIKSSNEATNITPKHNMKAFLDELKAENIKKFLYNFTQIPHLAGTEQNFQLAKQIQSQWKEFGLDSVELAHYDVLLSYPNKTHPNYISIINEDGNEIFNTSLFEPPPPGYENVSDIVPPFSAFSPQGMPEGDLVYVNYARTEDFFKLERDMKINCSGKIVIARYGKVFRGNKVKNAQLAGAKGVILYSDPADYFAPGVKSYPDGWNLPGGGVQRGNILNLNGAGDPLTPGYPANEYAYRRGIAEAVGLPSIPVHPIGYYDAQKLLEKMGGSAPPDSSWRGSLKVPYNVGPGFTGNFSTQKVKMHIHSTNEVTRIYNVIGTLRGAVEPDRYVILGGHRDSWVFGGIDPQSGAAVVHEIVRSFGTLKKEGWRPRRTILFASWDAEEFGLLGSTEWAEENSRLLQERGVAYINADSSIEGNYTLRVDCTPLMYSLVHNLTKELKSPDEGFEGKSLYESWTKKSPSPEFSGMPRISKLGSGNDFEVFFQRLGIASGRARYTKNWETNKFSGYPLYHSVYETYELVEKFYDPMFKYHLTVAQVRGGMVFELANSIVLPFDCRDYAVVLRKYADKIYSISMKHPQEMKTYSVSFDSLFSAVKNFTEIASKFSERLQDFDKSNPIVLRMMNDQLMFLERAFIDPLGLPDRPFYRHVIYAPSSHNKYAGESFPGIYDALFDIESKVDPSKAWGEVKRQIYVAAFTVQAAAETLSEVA
Briefly: flow cytometry, 8-point serial dilution on HEK293T-PSMA cells, anti-mouse IgG2a-PE secondary, gMFI. Here is the method:
as §1, with “PSMA expressing HEK293T cell lines were used to assess the binding” for “Binding”, “antibodies” for “CA9 1-mIgG2a and CA9 2-mIgG2a”, “to” for “to CA9 was assessed by”, “surface expressed PSMA.” for “binding dose curves on parental HEK293T cells and HEK293T-CA9 expressing cell lines.”, “HEK293T-PSMA” for “HEK293T-CA9”
(§4) There was no binding to parental HEK293T cells.

Assay [9] concerns the target T7, human Prostate-Specific Membrane …. Briefly: flow cytometry dose curves on HEK293T-PSMA against parental cells (data not shown). Here is the method: as §1, with “PSMA expressing HEK293T cell lines were used to assess the binding” for “Binding”, “antibodies” for “CA9 1-mIgG2a and CA9 2-mIgG2a”, “to” for “to CA9 was assessed by”, “surface expressed PSMA.” for “binding dose curves on parental HEK293T cells and HEK293T-CA9 expressing cell lines.”, “HEK293T-PSMA” for “HEK293T-CA9”
Binding of PSMA 1-mIgG2a or PSMA 2-mIgG2a to PSMA was assessed by cell binding dose curves on parental HEK293T cells and HEK293T-PSMA expressing cell lines. […] (data not shown)

In assay [10] the target is T2, human Carbonic Anhydrase IX (CA9) …. Briefly: flow cytometry, 8-point serial dilution on HEK293T-CA9 cells, anti-mouse IgG2a-PE secondary, gMFI. How it is done:
as §1, §4

For assay [11], the target named is T8, mouse CA9 expressed on HEK293T cells (mouse, UniProt Q8VHB5 32-437).
T8 construct: whole, on cells; also called HEK293T-mCA9; mCA9
T8 sequence (Q8VHB5 32-437): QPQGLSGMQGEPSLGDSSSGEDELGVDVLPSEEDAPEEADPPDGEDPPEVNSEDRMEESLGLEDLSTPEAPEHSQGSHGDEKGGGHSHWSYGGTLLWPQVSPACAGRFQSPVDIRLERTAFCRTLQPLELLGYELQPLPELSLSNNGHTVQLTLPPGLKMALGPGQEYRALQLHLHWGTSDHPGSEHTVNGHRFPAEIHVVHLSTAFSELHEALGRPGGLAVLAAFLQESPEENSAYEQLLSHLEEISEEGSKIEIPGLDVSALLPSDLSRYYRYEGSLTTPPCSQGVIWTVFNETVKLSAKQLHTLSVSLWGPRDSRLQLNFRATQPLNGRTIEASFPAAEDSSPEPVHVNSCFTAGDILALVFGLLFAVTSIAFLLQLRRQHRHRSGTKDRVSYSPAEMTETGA
As to the kind of experiment: flow cytometry histograms on HEK293T-mCA9 cells (panel B, left), axis CA9 1 ab MFI. The source says: To assess cross-reactivity of CA9 1 to mouse CA9 and further confirm the binding kinetics to human CA9, HEK293T-mCA9 cells were stained with increasing concentrations of CA9 1-mIgG2a then analyzed by flow cytometry. Recombinant CA9 1-mIgG2a protein was titrated against parental and engineered HEK293T cell lines expressing mouse CA9. Target cells were also stained with positive control antibodies to confirm expression of mouse CA9 on the engineered HEK293T cells. Following primary staining, the cells were washed, stained with secondary antibody, and subsequently analyzed by flow cytometry. Data were analyzed using FlowJo. Target cells were also stained using an anti-mouse CA9 positive control antibody to confirm expression of mouse CA9 on the HEK293T-mCA9 cells.

Assay [12] concerns the target T9, recombinant mouse CA9 (mouse, UniProt Q8VHB5 32-390, limits assumed).
T9 construct: also called mouse homolog of CA9
Briefly: BLI (Octet R8), antibody on anti-mouse capture biosensors, recombinant antigen as analyte. How it is done:
as §2, §3

Assay [13] addresses recombinant human CA9 (human, UniProt Q16790 38-414). Briefly: BLI (Octet R8), antibody on anti-mouse capture biosensors, recombinant human CA9 as analyte. Here is the method: as §2

T4 sequence (Q04609 44-750 limits assumed): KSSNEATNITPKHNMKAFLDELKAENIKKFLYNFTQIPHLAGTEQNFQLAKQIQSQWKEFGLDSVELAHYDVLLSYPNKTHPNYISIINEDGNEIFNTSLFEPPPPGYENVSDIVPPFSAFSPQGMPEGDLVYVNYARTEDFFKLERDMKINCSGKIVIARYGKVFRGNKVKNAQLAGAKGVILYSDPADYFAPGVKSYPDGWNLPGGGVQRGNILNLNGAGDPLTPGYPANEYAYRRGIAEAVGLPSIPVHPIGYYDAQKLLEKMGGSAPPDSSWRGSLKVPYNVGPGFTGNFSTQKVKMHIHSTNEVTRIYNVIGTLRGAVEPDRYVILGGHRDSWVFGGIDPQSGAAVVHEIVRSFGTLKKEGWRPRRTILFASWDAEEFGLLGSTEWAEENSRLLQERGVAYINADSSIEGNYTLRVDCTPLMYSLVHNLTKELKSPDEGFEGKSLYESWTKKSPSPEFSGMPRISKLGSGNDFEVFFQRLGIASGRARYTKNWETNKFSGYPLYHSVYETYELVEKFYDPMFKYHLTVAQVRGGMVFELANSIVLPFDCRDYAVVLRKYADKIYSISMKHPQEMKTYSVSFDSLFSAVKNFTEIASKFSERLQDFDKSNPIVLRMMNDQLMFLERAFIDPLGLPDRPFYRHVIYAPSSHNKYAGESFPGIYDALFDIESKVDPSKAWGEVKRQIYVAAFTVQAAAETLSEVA
T9 sequence (Q8VHB5 32-390 limits assumed): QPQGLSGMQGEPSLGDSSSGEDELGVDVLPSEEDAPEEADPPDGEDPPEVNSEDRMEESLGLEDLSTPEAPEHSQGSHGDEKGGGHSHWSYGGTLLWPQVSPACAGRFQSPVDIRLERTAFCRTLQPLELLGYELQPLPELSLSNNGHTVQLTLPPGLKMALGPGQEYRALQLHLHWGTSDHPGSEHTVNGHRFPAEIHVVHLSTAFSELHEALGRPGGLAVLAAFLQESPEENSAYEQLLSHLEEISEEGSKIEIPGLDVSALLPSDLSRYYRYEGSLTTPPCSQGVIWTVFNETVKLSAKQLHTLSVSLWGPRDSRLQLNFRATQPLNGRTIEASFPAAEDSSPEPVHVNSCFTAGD

B1: CA9 2 scFv (as printed; CA9 2 is a VH-only single domain) (VHH)
VHH: EVQLVESGGGLVQPGGSLRLSCAASGFSFSDYSGMSWVRQAPGKGEELVSAISPGGGDTYYADSVKGRFTISRDNSKNTLYLQMNSLRAEDTAVYYCARRWWYYSNHSGDYDYFDYRGQGTLVTVSS
notes: It was detected with a secondary 'mouse anti human IgG2' stain
With B1, the binding result in [1], in [2] and in assay [3] was “binds” throughout.

B2: CA9 2-mIgG2a (antibody, V domains shown)
VH: EVQLVESGGGLVQPGGSLRLSCAASGFSFSDYSGMSWVRQAPGKGEELVSAISPGGGDTYYADSVKGRFTISRDNSKNTLYLQMNSLRAEDTAVYYCARRWWYYSNHSGDYDYFDYRGQGTLVTVSS
For the molecule B2, in assay [4], the binding result is on record as “binds”.

B3: PSMA 1-mIgG2a (antibody, V domains shown)
VH: QVQLVQSGPEVKKPGASVKVSCKASGYTFTSYGITWVRQAPGQGLEWMGWISEYNGNTNYAQKFQGRVTMTIDTSTTTAYMELRSLRSDDTAVYFCARGGILPYYFFYYMDVWGKGTTVTVSS
VL: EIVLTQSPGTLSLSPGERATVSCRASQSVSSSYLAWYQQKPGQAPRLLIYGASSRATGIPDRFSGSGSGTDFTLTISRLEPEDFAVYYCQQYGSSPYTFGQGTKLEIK
notes: Fully human VH and VL cloned into vectors with mouse IgG2a constant domains (chimeric, expressed in CHO); also called PSMA 1 antigen biding fragment
Consider B3, for which, in assay [5], the Kd turned out to be 300 pM, the off-rate (koff) was found to be 1.89e-05 s⁻¹ and the kon was 63300 M⁻¹ s⁻¹. Further, in [6], the binding result is recorded as “no binding (tested: 30 µg/mL)”. Further, the binding result in assay [7] is on record as “no binding”. The same molecule came in with an EC50 in [8] of 1860 pM.

B4: CA9 1 scFv (scFv)
scFv: QVQLVQSGAEVKKPGASVKVSCKASGYTFTSYYMHWVRQAPGQGLEWMGIINPSRGSASYAQKFQGRVTMARDTSTSTVYMELSSLRSEDTAVYYCARDRNYYYYMDVWGKGTTVTVSSGGGGSGGGGSGGGGSEIVMTQSPATLSVSPGERATLSCRASQNISSNLAWYQQKPGQAPRLLIYGASTRATDIPARFSGSGSGTEFTLTISSLQSEDFAVYYCQQYITWYTFGQGTKLEIK
notes: Used to stain the CA9 isoform cell lines; It was detected with a secondary 'mouse anti human IgG2' stain
On to B4, for which the binding result in assay [1], in assay [2] and in [3] was “binds” in each case.

B5: PSMA 2-mIgG2a (antibody, V domains shown)
VH: QVQLVQSGAEVKKPGASVKVSCKASGYTFSSYGVSWVRQAPGQGLEWMGWISKYNGNTNYAQKFQGRVTMTTDTSTSTAYMELRSLRSDDTAVYFCARGGIHGDSYYFYYLDVWGKGTTVTVSS
VL: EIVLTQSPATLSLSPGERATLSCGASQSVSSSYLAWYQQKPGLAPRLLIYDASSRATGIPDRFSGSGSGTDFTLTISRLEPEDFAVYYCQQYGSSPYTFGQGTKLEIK
notes: Fully human VH and VL cloned into vectors with mouse IgG2a constant domains (chimeric, expressed in CHO)
In the case of B5, the binding result in [9] is “binds”.

B6: CA9 1-mIgG2a (antibody, V domains shown)
VH: QVQLVQSGAEVKKPGASVKVSCKASGYTFTSYYMHWVRQAPGQGLEWMGIINPSRGSASYAQKFQGRVTMARDTSTSTVYMELSSLRSEDTAVYYCARDRNYYYYMDVWGKGTTVTVSS
VL: EIVMTQSPATLSVSPGERATLSCRASQNISSNLAWYQQKPGQAPRLLIYGASTRATDIPARFSGSGSGTEFTLTISSLQSEDFAVYYCQQYITWYTFGQGTKLEIK
notes: Fully human VH and VL cloned into mammalian expression vectors with mouse IgG2a constant domains (chimeric antibody, expressed in CHO); also called CA9 1 antigen biding fragment
B6 yielded an EC50 in assay [10] of 920 pM. Further, the binding result in [11] is given as “no binding (tested: 30 µg/mL)”. Moreover, in [12], the binding result was “no binding”. Further, in assay [13], the Kd is 150 pM, the koff came to 4.9e-05 s⁻¹ and the kon stood at 325000 M⁻¹ s⁻¹.
